B1: SPOPL (parent)
chain: YTGRAPNLDKMADNLLAAADKYAL
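Note: lentivirally expressed fusions sorted by FACS into six bins by GFP to DsRed ratio, PSI derived from sequencing read proportions per bin multiplied by bin number.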

Variants of: B1
Experiment: protein stability index of a GFP-peptide fusion (GPS, HEK-293T) (PSI 1-6); higher = more stable
Conditions: c terminus: a fixed tail appended
With YTGRANNLDKMADNLLAAADKYAL [P6N] the protein stability index was 2.49. Variant YTGRAQNLDKMADNLLAAADKYAL [P6Q] has a protein stability index of 2.19. In the case of YTGRAANLDKMADNLLAAADKYAL [P6A], the protein stability index is reported as 1.88. YTGRAMNLDKMADNLLAAADKYAL [P6M] showed a protein stability index of 2.2. In the case of YTGRAYNLDKMADNLLAAADKYAL [P6Y], the protein stability index is reported as 1.75. Variant YTGRAPALDKMADNLLAAADKYAL [N7A] has a protein stability index of 1.98. YTGRAPILDKMADNLLAAADKYAL [N7I] gave a protein stability index of 1.81. With YTGRAPFLDKMADNLLAAADKYAL [N7F] the protein stability index was 3.09. YTGRAPTLDKMADNLLAAADKYAL [N7T] showed a protein stability index of 2.06. With YTGRAPQLDKMADNLLAAADKYAL [N7Q] the protein stability index was 2.39. YTGRAPDLDKMADNLLAAADKYAL [N7D] showed a protein stability index of 2.34. Work on YTGRAPRLDKMADNLLAAADKYAL [N7R] yielded a protein stability index of 1.48. Variant YTGRAPCLDKMADNLLAAADKYAL [N7C] has a protein stability index of 1.86. With YTGRAPSLDKMADNLLAAADKYAL [N7S] the protein stability index was 1.65. With YTGRAPELDKMADNLLAAADKYAL [N7E] the protein stability index was 1.99. YTGRAPGLDKMADNLLAAADKYAL [N7G] showed a protein stability index of 1.89. Variant YTGRAPHLDKMADNLLAAADKYAL [N7H] has a protein stability index of 1.68. With YTGRAPYLDKMADNLLAAADKYAL [N7Y] the protein stability index was 1.27. With YTGRAPKLDKMADNLLAAADKYAL [N7K] the protein stability index was 1.68. Variant YTGRAPVLDKMADNLLAAADKYAL [N7V] has a protein stability index of 1.7. YTGRAPWLDKMADNLLAAADKYAL [N7W] showed a protein stability index of 1.84. With WTGRAPNLDKMADNLLAAADKYAL [Y1W] the protein stability index was 2.94. Work on YTGRAPNLDKDADNLLAAADKYAL [M11D] yielded a protein stability index of 2.42. YTGRAPNLDKSADNLLAAADKYAL [M11S] showed a protein stability index of 2.62. YTGRAPNLDKVADNLLAAADKYAL [M11V] gave a protein stability index of 3.05. Work on YTGRAPNLDKKADNLLAAADKYAL [M11K] yielded a protein stability index of 2.15. Work on YTGRAPNLDKQADNLLAAADKYAL [M11Q] yielded a protein stability index of 2.34. YTGRAPNLDKPADNLLAAADKYAL [M11P] showed a protein stability index of 2.56. With YTGRAPNLDKGADNLLAAADKYAL [M11G] the protein stability index was 1.62. YTGRAPNLDKCADNLLAAADKYAL [M11C] gave a protein stability index of 1.55. YTGRAPNLDKNADNLLAAADKYAL [M11N] gave a protein stability index of 2.43. YTGRAPNLDKRADNLLAAADKYAL [M11R] gave a protein stability index of 2.05. YTGRAPNLDKIADNLLAAADKYAL [M11I] showed a protein stability index of 2.32. In the case of YTGRAPNLDKYADNLLAAADKYAL [M11Y], the protein stability index is reported as 1.31. In the case of YTGRAPNLDKEADNLLAAADKYAL [M11E], the protein stability index is reported as 2.56. YTGRAPNLDKLADNLLAAADKYAL [M11L] gave a protein stability index of 2.44. Variant YTGRAPNLDKAADNLLAAADKYAL [M11A] has a protein stability index of 2.02. YTGRAPNLDKHADNLLAAADKYAL [M11H] gave a protein stability index of 2.47. For YTGRAPNLDKTADNLLAAADKYAL [M11T], the protein stability index was 2.62. With YTGRAPNLDKWADNLLAAADKYAL [M11W] the protein stability index was 2.21. Variant YTGRAPNLDKFADNLLAAADKYAL [M11F] has a protein stability index of 1.73. Work on YTGREPNLDKMADNLLAAADKYAL [A5E] yielded a protein stability index of 3.58. With YTGRSPNLDKMADNLLAAADKYAL [A5S] the protein stability index was 2.33. YTGRWPNLDKMADNLLAAADKYAL [A5W] gave a protein stability index of 4.42. Work on YTGRKPNLDKMADNLLAAADKYAL [A5K] yielded a protein stability index of 2.01. In the case of YTGRRPNLDKMADNLLAAADKYAL [A5R], the protein stability index is reported as 1.74. Variant YTGRYPNLDKMADNLLAAADKYAL [A5Y] has a protein stability index of 1.41. In the case of YTGRVPNLDKMADNLLAAADKYAL [A5V], the protein stability index is reported as 1.78. For YTGRGPNLDKMADNLLAAADKYAL [A5G], the protein stability index was 1.93. YTGRMPNLDKMADNLLAAADKYAL [A5M] showed a protein stability index of 1.51. Variant YTGRFPNLDKMADNLLAAADKYAL [A5F] has a protein stability index of 2.31. YTGRNPNLDKMADNLLAAADKYAL [A5N] gave a protein stability index of 3. Work on YTGRCPNLDKMADNLLAAADKYAL [A5C] yielded a protein stability index of 1.87. Work on YTGRLPNLDKMADNLLAAADKYAL [A5L] yielded a protein stability index of 1.77. YTGRHPNLDKMADNLLAAADKYAL [A5H] showed a protein stability index of 1.47. In the case of YTGRTPNLDKMADNLLAAADKYAL [A5T], the protein stability index is reported as 2.42. YTGRIPNLDKMADNLLAAADKYAL [A5I] gave a protein stability index of 1.58. With YTGRDPNLDKMADNLLAAADKYAL [A5D] the protein stability index was 3.19. YTGRPPNLDKMADNLLAAADKYAL [A5P] gave a protein stability index of 2. Variant YTGRQPNLDKMADNLLAAADKYAL [A5Q] has a protein stability index of 2.48. With YMGRAPNLDKMADNLLAAADKYAL [T2M] the protein stability index was 2.24. Variant YPGRAPNLDKMADNLLAAADKYAL [T2P] has a protein stability index of 2.75. In the case of YVGRAPNLDKMADNLLAAADKYAL [T2V], the protein stability index is reported as 2.97. For YDGRAPNLDKMADNLLAAADKYAL [T2D], the protein stability index was 3.75. YRGRAPNLDKMADNLLAAADKYAL [T2R] showed a protein stability index of 2.43. For YEGRAPNLDKMADNLLAAADKYAL [T2E], the protein stability index was 3.81. For YYGRAPNLDKMADNLLAAADKYAL [T2Y], the protein stability index was 2.15. YAGRAPNLDKMADNLLAAADKYAL [T2A] gave a protein stability index of 1.32. Variant YWGRAPNLDKMADNLLAAADKYAL [T2W] has a protein stability index of 2.01. YSGRAPNLDKMADNLLAAADKYAL [T2S] showed a protein stability index of 2.75. YFGRAPNLDKMADNLLAAADKYAL [T2F] showed a protein stability index of 2.47. YIGRAPNLDKMADNLLAAADKYAL [T2I] gave a protein stability index of 1.98. For YGGRAPNLDKMADNLLAAADKYAL [T2G], the protein stability index was 2.79. For YLGRAPNLDKMADNLLAAADKYAL [T2L], the protein stability index was 2.76. With YHGRAPNLDKMADNLLAAADKYAL [T2H] the protein stability index was 2.4. Variant YQGRAPNLDKMADNLLAAADKYAL [T2Q] has a protein stability index of 2.29. For YNGRAPNLDKMADNLLAAADKYAL [T2N], the protein stability index was 2.93. With YKGRAPNLDKMADNLLAAADKYAL [T2K] the protein stability index was 2.49. Work on YTGRAPNFDKMADNLLAAADKYAL [L8F] yielded a protein stability index of 1.9. With YTGRAPNSDKMADNLLAAADKYAL [L8S] the protein stability index was 1.83. Work on YTGRAPNYDKMADNLLAAADKYAL [L8Y] yielded a protein stability index of 1.36. YTGRAPNQDKMADNLLAAADKYAL [L8Q] gave a protein stability index of 2.58. YTGRAPNIDKMADNLLAAADKYAL [L8I] showed a protein stability index of 1.85. Work on YTGRAPNNDKMADNLLAAADKYAL [L8N] yielded a protein stability index of 2.94. With YTGRAPNMDKMADNLLAAADKYAL [L8M] the protein stability index was 1.8. YTGRAPNCDKMADNLLAAADKYAL [L8C] gave a protein stability index of 2.28. With YTGRAPNVDKMADNLLAAADKYAL [L8V] the protein stability index was 3.88. Work on YTGRAPNTDKMADNLLAAADKYAL [L8T] yielded a protein stability index of 2.55. Work on YTGRAPNRDKMADNLLAAADKYAL [L8R] yielded a protein stability index of 2.93. YTGRAPNHDKMADNLLAAADKYAL [L8H] showed a protein stability index of 2.38. For YTGRAPNGDKMADNLLAAADKYAL [L8G], the protein stability index was 2.81. YTGRAPNDDKMADNLLAAADKYAL [L8D] gave a protein stability index of 3. With YTGRAPNKDKMADNLLAAADKYAL [L8K] the protein stability index was 2.16. Work on YTGRAPNPDKMADNLLAAADKYAL [L8P] yielded a protein stability index of 3.29.
